Where “and” joins values, the source holds several entries; their conditions need not be identical. Equal values may be shown once.
Details: Salmonella typhimurium (strain LT2 / SGSC1412 / ATCC 700720), pH 7.8, 25 °C, Urea, CD, Potassium phosphate 10 mM, reversible: yes, whole UniProt chain shown

B1: Tryptophan synthase alpha chain wild type, P00929 (protein)
chain: MERYENLFAQLNDRREGAFVPFVTLGDPGIEQSLKIIDTLIDAGADALELGVPFSDPLADGPTIQNANLRAFAAGVTPAQCFEMLALIREKHPTIPIGLLMYANLVFNNGIDAFYARCEQVGVDSVLVADVPVEESAPFRQAALRHNIAPIFICPPNADDDLLRQVASYGRGYTYLLSRSGVTGAENRGALPLHHLIEKLKEYHAAPALQGFGISSPEQVSAAVRAGAAGAISGSAIVKIIEKNLASPKQMLAELRSFVSAMKAASRA
Q: With B1 as the protein, how does the unfolding free energy read?
A: Its unfolding free energy is 13.2 kcal/mol.

Q: What about the denaturant m value (transition: 3) of the same protein?
A: Its denaturant m value is 2.68 kcal/mol/M and 1.6 kcal/mol/M.

Q: And the “denaturant midpoint (higher = more stable)” value (transition: 3)?
A: The value was 2.75 M and 3.64 M.

Q: And the unfolding free energy (transition: 3)?
A: The unfolding free energy was 7.35 kcal/mol and 5.81 kcal/mol.
